Reference: article PMC314469, “Protein Interaction Networks by Proteome Peptide Scanning” (PLoS Biology, 2004)

T1: Boi2 SH3 (BOI2_YEAST), P39969
T1 chain: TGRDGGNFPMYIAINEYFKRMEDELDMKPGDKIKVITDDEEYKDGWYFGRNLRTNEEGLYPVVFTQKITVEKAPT

T2: Boi1 SH3 (BOI1_YEAST), P38041
T2 chain: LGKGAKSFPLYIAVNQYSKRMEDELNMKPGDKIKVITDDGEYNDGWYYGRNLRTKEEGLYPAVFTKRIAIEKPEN

T3: Rvs167 SH3 (RV167_YEAST), P39743
T3 chain: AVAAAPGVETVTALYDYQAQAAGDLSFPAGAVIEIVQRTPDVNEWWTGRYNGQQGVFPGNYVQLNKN

T4: Yhr016c SH3 (YSC84_YEAST), P32793
T4 chain: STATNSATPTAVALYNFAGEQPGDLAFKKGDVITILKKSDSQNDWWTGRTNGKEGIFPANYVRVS

T5: Yfr024 SH3 (LSB3_YEAST), P43603
T5 chain: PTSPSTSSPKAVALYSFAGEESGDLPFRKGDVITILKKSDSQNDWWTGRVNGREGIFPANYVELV


Tests used:
Assay in all cases: SPOT array
[1] = target: T1, Boi2 SH3 (BOI2_YEAST), P39969
[2] = target: T2, Boi1 SH3 (BOI1_YEAST), P38041
[3] = target: T3, Rvs167 SH3 (RV167_YEAST), P39743
[4] = target: T4, Yhr016c SH3 (YSC84_YEAST), P32793
[5] = target: T5, Yfr024 SH3 (LSB3_YEAST), P43603

Row | Binder | normalised SPOT signal, Boehringer light units (BLU); mean over the file's lines of this peptide [1] | normalised SPOT signal, Boehringer light units (BLU); mean over the file's lines of this peptide [2] | normalised SPOT signal, Boehringer light units (BLU); mean over the file's lines of this peptide [3] | normalised SPOT signal, Boehringer light units (BLU); mean over the file's lines of this peptide [4] | normalised SPOT signal, Boehringer light units (BLU); mean over the file's lines of this peptide [5]
1 | RPPPLTPEKNLYLT [YER032W 258-271] | 75.9 | 64.5 | 50.7 | 0 | 381
2 | RPTPRKPSRMATDH [YER118C 8-21] | 74.7 | 80.2 | 2100 | 2650 | 16500
3 | RGTPANPGRVATLI [YER163C 47-60] | 0 | 147 | 48.8 | 199 | 146
4 | RRKPHSPNKKKPKE [YDR223W 12-25] | 198 | 148 | 38.5 | 113 | 693
5 | RRGPGRPRKDASTS [YDR310C 204-217] | 53.5 | 323 | 212 | 57.2 | 889
6 | RKRPAPPKKKAPST [YFR013W 82-95] | 39.9 | 192 | 59.3 | 45.5 | 840
7 | RPSPWLPSKPNSYH [YDR151C 80-93] | 37.2 | 102 | 140 | 578 | 6260
8 | RPNPTQPRKPLDSK [YDR359C 776-789] | 61.7 | 210 | 162 | 104 | 271
9 | RLIPTSPQKTNINT [YGR146C 14-27] | 30.1 | 52.5 | 73.9 | 197 | 547
10 | RIPPTVPSKIIDVV [YGR198W 7-20] | 22.2 | 43.1 | 44.9 | 158 | 618

Next, values leading:

Row | normalised SPOT signal, Boehringer light units (BLU); mean over the file's lines of this peptide [1] | normalised SPOT signal, Boehringer light units (BLU); mean over the file's lines of this peptide [2] | normalised SPOT signal, Boehringer light units (BLU); mean over the file's lines of this peptide [3] | normalised SPOT signal, Boehringer light units (BLU); mean over the file's lines of this peptide [4] | normalised SPOT signal, Boehringer light units (BLU); mean over the file's lines of this peptide [5] | Binder
11 | 201 | 366 | 4880 | 19200 | 34800 | RMIPELPPKRIGSQ [YMR004W 190-203]
12 | 33.8 | 6170 | 25200 | 9140 | 19600 | RPLPQLPNRNNRPV [YOR181W 311-324]
13 | 14.3 | 3000 | 18300 | 33400 | 25900 | RGPPPLPPRANVQP [YLR144C 22-35]
14 | 62.7 | 101 | 48.3 | 90.2 | 3300 | RHRPQKPVRTVIYT [YOL164W 148-161]
15 | 251 | 69.4 | 719 | 1130 | 10700 | RLLPSWPKRGFSLL [YIL047C 210-223]
16 | 27.5 | 92.7 | 10900 | 3320 | 13100 | RIVPAIPKKATVDE [YNL064C 356-369]
17 | 62 | 129 | 40 | 71.9 | 321 | RFDPKSPTKRSIAI [YMR129W 524-537]
18 | 14.7 | 55 | 1080 | 880 | 7220 | RGIPARPSKDDVMK [YPL073C 83-96]
19 | 65.9 | 2310 | 11800 | 50200 | 49100 | REEPPLPKRIRISK [YKL214C 57-70]
20 | 38.4 | 66.6 | 116 | 846 | 3040 | RFNPAIPLRIYLKT [YLR073C 15-28]
21 | 47.3 | 146 | 39 | 838 | 6040 | RNEPVKPFRNIDLK [YHR037W 29-42]
22 | 17 | 61.2 | 4.9 | 115 | 511 | RNEPVIPTKPSSSQ [YNL139C 1279-1292]
